Assays:
[1] = biological target: T1, AfERG10A (Aspergillus fumigatus, UniProt B0XMC1); test: X-ray crystal structure of the complex, […] Å; details: crystals from 0.1 M HEPES pH 7.0, 2 M ammonium sulfate with CoA; CoA binding site
T1 construct: gene erg10A; pGEX-6P1 GST tag cleaved by PreScission; E. coli BL21(DE3)/pLysS; homotetramer
T1 sequence (B0XMC1 36-433): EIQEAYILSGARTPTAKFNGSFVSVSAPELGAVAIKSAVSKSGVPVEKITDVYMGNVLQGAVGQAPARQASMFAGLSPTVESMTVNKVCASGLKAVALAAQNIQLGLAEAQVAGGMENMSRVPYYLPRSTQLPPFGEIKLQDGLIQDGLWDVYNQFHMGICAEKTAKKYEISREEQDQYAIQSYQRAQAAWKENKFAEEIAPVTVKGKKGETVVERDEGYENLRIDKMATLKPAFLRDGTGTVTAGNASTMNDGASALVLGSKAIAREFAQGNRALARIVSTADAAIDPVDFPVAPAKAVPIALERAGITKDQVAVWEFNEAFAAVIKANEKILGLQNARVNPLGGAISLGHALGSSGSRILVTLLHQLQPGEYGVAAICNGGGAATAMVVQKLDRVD

[2] = substrate: CC(=O)CC(=O)SCCNC(=O)CCNC(=O)[C@H](O)C(C)(C)COP(=O)(O)OP(=O)(O)OC[C@H]1O[C@@H](n2cnc3c(N)ncnc32)[C@H](O)[C@@H]1OP(=O)(O)O; test: Mg2+ method, degradative (thiolysis) reaction, steady-state kinetics; format: biochemical, Aspergillus fumigatus; details: CoA co-substrate (60 μM in the mixture as printed), 50 mM Tris-HCl pH 8.1, 20 mM MgCl2, 40 mM KCl, 30°C
Excerpt: (§1) Mg2+ method, degradative (thiolysis) reaction, steady-state kinetics on AfERG10A

[3] = substrate: CC(C)(COP(=O)(O)OP(=O)(O)OC[C@H]1O[C@@H](n2cnc3c(N)ncnc32)[C@H](O)[C@@H]1OP(=O)(O)O)[C@@H](O)C(=O)NCCC(=O)NCCS; test: as above; format: biochemical, Aspergillus fumigatus; details: acetoacetyl-CoA co-substrate (10 μM in the mixture as printed), 50 mM Tris-HCl pH 8.1, 20 mM MgCl2, 40 mM KCl, 30°C
Excerpt: as §1

[4] = substrate: CC(=O)SCCNC(=O)CCNC(=O)[C@H](O)C(C)(C)COP(=O)(O)OP(=O)(O)OC[C@H]1O[C@@H](n2cnc3c(N)ncnc32)[C@H](O)[C@@H]1OP(=O)(O)O; test: purified protein; format: biochemical, Aspergillus fumigatus; details: 50 mM Tris-HCl pH 7.4, 0.2 mM NADH, 0.5 mM DTT, 30°C
[5] = biological target: the molecule itself; test: crystal structure; apo and CoA-complexed AfERG10A; sitting drop at room temperature, 0.1 M HEPES (pH 7.0), 2 M ammonium sulfate, in the absence or presence of CoA; refined to 2.4 Å; four molecules in one asymmetric unit

Molecule: CC(C)(COP(=O)(O)OP(=O)(O)OC[C@H]1O[C@@H](n2cnc3c(N)ncnc32)[C@H](O)[C@@H]1OP(=O)(O)O)[C@@H](O)C(=O)NCCC(=O)NCCS [CoA]
- X-ray crystal structure of the complex, 2.4 Å [1]: structures of apo- and CoA-complexed AfERG10A were determined

B1: Aspergillus fumigatus acetyl-CoA acetyltransferase AfERG10A (residues 36 to 433) (enzyme, UniProt B0XMC1 36-433, looked up)
chain: T1 sequence (B0XMC1 36-433)
notes: AfERG10A (AFUB_000550), mitochondrial acetyl-CoA acetyltransferase of Aspergillus fumigatus, whole protein 433 amino acids; Cloned from cDNA into pGEX-6P1 with primers P13/P14; After PreScission cleavage a few vector residues probably remain at the N-terminus; Primer P13 carries a Lys codon (AAA) before GAG (Glu), so the construct may begin one residue earlier or have an added Lys; also called …
- Km [2]: 43 ± 9 µM
- kcat [2]: 3 ± 0.2 s⁻¹
- Km [3]: 26 ± 5 µM
- kcat [3]: 5 ± 0.2 s⁻¹
- Km [4]: 232 ± 49 µM
- kcat [4]: 7 ± 0.4 s⁻¹
- stoichiometry N [5]: 4
